B1: Activin: Activin (or Activin A), a dimeric member of the TGF-β Superfamily, added exogenously to T cells (protein, UniProt P08476 311-426, looked up)
Inhibin beta A chain: GLECDGKVNICCKKQFFVSFKDIGWNDWIIAPSGYHANYCEGECPSHIAGTSGSSLSFHSTVINHYRMRGHSPFANLKSCCVPTKLRPMSMLYYDDGQNIIKKDIQNMIVEECGCS
modifications: Inhibin beta A chain homodimer

Assays:
SMAD = SMAD phosphorylation by western blot in CD4+ T cells; assay type: cell-based, mice; details: CD4+CD25− T cells, anti-CD3/anti-CD28 24 hrs, then 12 hours treatment; Activin 5 or 10 ng/ml; TGF-β 0.5 or 2 ng/ml; versus untreated
Protocol: Cells were harvested and subjected to SDS-PAGE and Western blot with the indicated antibodies.
Since Activin has been reported to promote SMAD signaling in non-T cells (Schmierer, B., et al., J Biol Chem, 2003. 278:21197-203), whether Activin signaling in T cells could have a similar effect was examined SMAD activity was assessed by western blot analysis of SMAD phosphorylation.

naïve CD4+ T cells = assay: In vitro Treg differentiation, intracellular Foxp3 by flow cytometry; assay type: cell-based, mice
Protocol: Naïve CD4+ T cells from Yap1f/f,Foxp3-yfpCre+ (KO) and Yap1 wt/wt,Foxp3ypfCre+ (WT) mice were stimulated with anti-CD3/CD28 antibodies (1 and 4 ug/ml, respectively) for 3 days in the presence of IL-2 (100 U/ml) and the indicated doses of TGFβ and exogenous Activin A. A low dose of TGF-beta and/or activin was also administered to the indicated samples (activin was dosed at 50 ng/ml on day 0 and day 2 of culture). Treg induction (via detection of intracellular Foxp3 up-regulation) was determined by flow cytometry.
To explore the involvement of Activin/ACVR1C signaling in the driving of Treg differentiation by YAP, the effects of supplemental Activin on in vitro Treg commitment was also investigated. Activation of wild type naïve CD4+ T cells without TGFI3 yielded little-to-no Foxp3 induction.
Naïve CD4+ T cells (CD4+ CD25− CD62LHi) were sorted on a FACS Aria high speed sorter. The sorted cells were activated with plate-bound aCD3 (10 ug/ml) and soluble aCD28 (2ug/ml) in a 24-well plate with the following polarizing conditions: Th1 (IL-12 (10 ng/ml), aIL-4 (10 ug/ml)), Th2 (IL-4 (10 ng/ml), aIFN-g(10 ug/ml), aIL-12 (10 ug/ml)), Th17 (IL-6 (10 ng/ml), TGF-b1 (1.25 ng/ml), IL-23 (10 ng/ml), IL-1b(10 ng/ml), aIFN-g (10 ug/ml), aIL-4 (10 ug/ml), Treg (TGFb1 (5 ng/ml), IL-2 (100IU/ml).
For extracellular staining, harvested cells were washed and incubated in PBS containing 1% FBS containing the below fluorochrome-conjugated antibodies in a U-bottom 96-well plate. For intracellular cytokine staining, harvested cells were re-stimulated in PMA and Ionomycin in the presence of Golg-Plug (BD Biosciences). After 5 hour incubation, the cells were fixed/permeablized (eBioscience) and incubated with antibodies. IFN-g PE, IFN-g APC, IL-13 PE, IL-17 APC (BD Bioscience), IL-2 APC (BD Pharmingen), Foxp3 PE (eBioscience). For cellular proliferation, Cell Trace CFSE cell proliferation kit (Invitrogen) was used per manufacture's manual.

| Molecule | SMAD phosphorylation (phospho-SMAD) (SMAD) | Foxp3+ T cell induction (Treg induction) (naïve CD4+ T cells; wild type naïve CD4+ T cells, anti-CD3/CD28, IL-2 (100 U/ml), 3 days, activin 50 ng/ml on day 0 and day 2, low (suboptimal) dose TGF-β) | Foxp3+ T cell induction (Treg induction) (naïve CD4+ T cells; Foxp3-driven YAP knockout (Foxp3Cre+/Yap1f/f) naïve CD4+ T cells, anti-CD3/CD28, IL-2, 3 days) | Foxp3+ T cell induction (Treg induction) (naïve CD4+ T cells; wild type naïve CD4+ T cells, anti-CD3/CD28, IL-2 (100 U/ml), 3 days, activin 50 ng/ml on day 0 and day 2, low (suboptimal) dose TGF-β, listed as Activin A) |
| --- | --- | --- | --- | --- |
| TGF-β: anti-inflammatory cytokine TGF-β, inducer of Foxp3 expression | induced SMAD phosphorylation | modest up-regulation of Foxp3 |  |  |
| B1 | elevation of phospho-SMAD |  | not seen | generated a population of Foxp3+ cells |

From US12312398B2, “Compositions and methods for targeting activin signaling to treat cancer” (The Johns Hopkins University, priority 2016, dated 2025)
